From patent publication US20150232562A1 (Ablynx, published 2015)

Tests used:
[1] = target: T1, recombinant human ErbB2/Fc chimera (human, UniProt P04626 23-652); assay: SPR (Biacore 3000), periplasmic extract over immobilised rhErbB2-Fc
T1 construct: bought from R&D Systems; also called rhErbB2-Fc; rhErb2-Fc; Fc part of the bought chimera not given; not described

[2] = target: T2, Epidermal Growth Factor Receptor 2 (HER2) (human, UniProt P04626 23-1255); assay: cell-based or functional assay
[3] = target: T1, recombinant human ErbB2/Fc chimera; assay: SPR (Biacore 3000), purified Nanobody over immobilised rhErbB2-Fc
[4] = target: T3, extracellular domain of HER2 (HER2-ECD), Flag- and polyhistidine-tagged (human, UniProt P04626 23-652); assay: SPR, 100 nM HER2-ECD over immobilised Nanobody (about 90 RU)
T3 construct: extracellular domain; made in HEK293T cells, purified by IMAC and SEC; also called ErbB2 ECD; not shown: N-terminal Flag tag after the Ig-kappa leader; C-terminal polyhistidine tag

[5] = target: T3, extracellular domain of HER2 …; assay: SPR, 1000 nM HER2-ECD over immobilised Nanobody (about 90 RU)
[6] = target: T1, recombinant human ErbB2/Fc chimera; assay: SPR (Biacore T100), Nanobody over immobilised rhErbB2-Fc
[7] = target: T1, recombinant human ErbB2/Fc chimera; assay: ELISA, coated ErbB2/Fc
[8] = target: T2, Epidermal Growth Factor Receptor 2 …; assay: flow cytometry on SKBR3 cells, periplasmic extract
[9] = target: T3, extracellular domain of HER2 …; assay: SPR, HER2-ECD over immobilised Nanobodies
[10] = target: T3, extracellular domain of HER2 …; assay: SPR, 100 nM HER2-ECD over immobilised Nanobody; row label prints 5F7, table title, text and FIG. 19 say 47D5
[11] = target: T3, extracellular domain of HER2 …; assay: SPR, 1000 nM HER2-ECD over immobilised Nanobody; row label prints 5F7, table title, text and FIG. 19 say 47D5

B1: 2A4 (VHH)
VHH: EVQLVESGGGLVQPGGSLRLSCAASGFIFDDYAMSWVRQAPGKGLEWVSAINWSGSHRNYADSVKGRFTISRDNAKKTVYLQMNSLQSEDTAVYYCGTGWQSTTKNQGYWGQGTQVTVSS
notes: C-term myc-His6 tag
**Q.** For B1, which koff [1] is on record?
**A.** 0.00205 s⁻¹

**Q.** And the “inhibition of SKBR3 cell proliferation ([3H]-thymidine), 50 nM Nanobody” value [2]?
**A.** ~30%

B2: 2A5 (VHH)
VHH: EVQLVESGGGLVQPGGSLRLSCATSGFTFDDYAMTWVRQAPGKGLEWVSSINWSGTHTDYTDSVKGRFTISRNNANNTLYLQMNSLKSEDTAVYYCAKNWGDAGTTWFEKSGSAGQGTQVTVSS
notes: C-term myc-His6 tag
**Q.** What does the source list for B2?
**A.** koff [1]: 0.00142 s⁻¹; inhibition of SKBR3 cell proliferation ([3H]-thymidine), 50 nM Nanobody [2]: ~18%

B3: 2D3 (VHH)
VHH: EVQLVESGGSLVQPGGSLRLSCAASGFTFDDYAMSWVRQVPGKGLEWVSSINWSGTHTDYADSVKGRFTISRNNANNTLYLQMNSLKSEDTAVYYCAKNWRDAGTTWFEKSGSAGQGTQVTVSS
notes: C-term myc-His6 tag; also called NB-2D3; Nb-2D3
**Q.** How did the koff [3] turn out when B3 was run?
**A.** ~0.001 s⁻¹

**Q.** What about the koff [4] of the same binder?
**A.** 0.0021 s⁻¹

**Q.** What about the koff [5] of the same binder?
**A.** 0.00151 s⁻¹

**Q.** What about the Kd [6] of the same binder?
**A.** 1.09 nM

**Q.** What about the koff [6] of the same binder?
**A.** 0.00148 s⁻¹

**Q.** And the kon [6]?
**A.** 1.36e+06 M⁻¹ s⁻¹

**Q.** What about the “inhibition of SKBR3 cell proliferation ([3H]-thymidine), 50 nM Nanobody” value [2] of the same binder?
**A.** ~30%

B4: DUMMY-35GS-2D3 (bispecific antibody)
chain: EVQLVESGGGLVQAGGSLRLSCAASGRTFRSYPMGWFRQAPGKEREFVASITGSGGSTYYADSVKGRFTISRDNAKNTVYLQMNSLRPEDTAVYSCAAYIRPDTYLSRDYRKYDYWGQGTQVTVSSGGGGSGGGGSGGGGSGGGGSGGGGSGGGGSGGGGSEVQLVESGGSLVQPGGSLRLSCAASGFTFDDYAMSWVRQVPGKGLEWVSSINWSGTHTDYADSVKGRFTISRNNANNTLYLQMNSLKSEDTAVYYCAKNWRDAGTTWFEKSGSAGQGTQVTVSS
notes: C-term myc-His6 tag; also called dummy-2D3; Dummy-2D3
**Q.** For B4, which koff [3] is on record?
**A.** ~0.001 s⁻¹

**Q.** What about the Kd [6] of the same binder?
**A.** 1.77 nM

**Q.** What about the koff [6] of the same binder?
**A.** 0.00113 s⁻¹

**Q.** What about the kon [6] of the same binder?
**A.** 1.16e+06 M⁻¹ s⁻¹

B5: 2C3 (VHH)
VHH: EVQLVESGGGLVQPGGSLRLSCVASGFSLDDYGMTWVRQAPGKGLEWVSSINWSGTHTDYADSVKGRFTISRDNAKNTLFLQMNSLRSEDTAVYYCNQGWKIVPTDRTGHGTQVTVSS
notes: C-term myc-His6 tag
**Q.** What does the source list for B5?
**A.** koff [1]: 0.00111 s⁻¹; inhibition of SKBR3 cell proliferation ([3H]-thymidine), 50 nM Nanobody [2]: ~30%

B6: 2G4 (VHH)
VHH: EVQLVESGGGLVQAGGSLRLSCAASGNIFSHNAMGWYRQAPGKQRELVTYITINGIANYVDSVKGRFTISRDNTKNTMYLQMVSLKPEDTAVYYCNVGGREYSGVYYYREYWGQGTQVTVSS
notes: C-term myc-His6 tag
**Q.** What does the source list for B6?
**A.** binding result [7]: binds; binding result [8]: binds

B7: 2A1 (VHH)
VHH: EVQLVESGGGLVQAGGSLRLSCVASKITFRRYIMDWYRQAPGKQRELVASINSDGSTGYTDSVKGRFTISRDNTKNTLDLQMNSLKPEDTAVYYCHGRWLEIGAEYWGQGTQVTVSS
notes: C-term myc-His6 tag
**Q.** Does B7 bind [7]?
**A.** binds

**Q.** Does B7 bind [8]?
**A.** binds

B8: 27D1-35GS-2D3 (bispecific antibody)
chain: EVQLVESGGGLVQPGGSLRLSCVASGFSLDDYGMTWVRQAPGKGLEWVSSINWSGTHTDYADSVKGRFTISRDNAKNTLFLQMNSLTPEDTAVYYCNQGWKILPAERRGHGTQVTVSSGGGGSGGGGSGGGGSGGGGSGGGGSGGGGSGGGGSEVQLVESGGSLVQPGGSLRLSCAASGFTFDDYAMSWVRQVPGKGLEWVSSINWSGTHTDYADSVKGRFTISRNNANNTLYLQMNSLKSEDTAVYYCAKNWRDAGTTWFEKSGSAGQGTQVTVSS
notes: biparatopic Nanobody; C-term myc-His6 tag
**Q.** With B8 as the binder, how does the koff [3] read?
**A.** ~0.0001 s⁻¹

B9: 27A3-35GS-2D3 (bispecific antibody)
chain: EVQLVESGGGLVQAGGSLSLSCVASGRFFSTRVMAWYRQTPGKQREFVASMRGSGSTNYADSVRGRFAISRDNAKNTVYLQMNTLKPEDTAVYYCRDINEDQWGQGTQVTVSSGGGGSGGGGSGGGGSGGGGSGGGGSGGGGSGGGGSEVQLVESGGSLVQPGGSLRLSCAASGFTFDDYAMSWVRQVPGKGLEWVSSINWSGTHTDYADSVKGRFTISRNNANNTLYLQMNSLKSEDTAVYYCAKNWRDAGTTWFEKSGSAGQGTQVTVSS
notes: as for B8
**Q.** How did the koff [3] turn out when B9 was run?
**A.** ~0.0001 s⁻¹

B10: 27E7-35GS-2D3 (bispecific antibody)
chain: EVQLVESGGGLVQAGGSLRLSCAASGITFRRYDMGWYRQFPGKERELVATILSEGDTNYVDPVKGRFTISRDNAKNTVYLQMNDLKPEDTAVYYCNGVWRAIGRTYWGQGTQVTVSSGGGGSGGGGSGGGGSGGGGSGGGGSGGGGSGGGGSEVQLVESGGSLVQPGGSLRLSCAASGFTFDDYAMSWVRQVPGKGLEWVSSINWSGTHTDYADSVKGRFTISRNNANNTLYLQMNSLKSEDTAVYYCAKNWRDAGTTWFEKSGSAGQGTQVTVSS
notes: as for B8
**Q.** For B10, which koff [3] is on record?
**A.** ~0.0001 s⁻¹

B11: 2C5 (VHH)
VHH: EVQLVESGGGLVQAGGSLNLSCVASGIPFSTRTMAWYRQTPGKSRDWVATIRSGTPVYADSVKGRFTVSRDNAKNTLYLRMNSLKSEDSATYTCRAVNADIWGQGTQVTVSS
notes: C-term myc-His6 tag
**Q.** Does B11 bind [7]?
**A.** binds

**Q.** Does B11 bind [8]?
**A.** binds

B12: 27B7-35GS-2D3 (bispecific antibody)
chain: EVQLVESGGGLVQPGGSLRLSCAASGFTFSSYAMSWVRQAPGKGLEWVSAISSGGGSITTYADSVKGRFTISRDNAKNTLYLQMSSLKPEDTALYYCAKARSSSSYYDFGSWGQGTQVTVSSGGGGSGGGGSGGGGSGGGGSGGGGSGGGGSGGGGSEVQLVESGGSLVQPGGSLRLSCAASGFTFDDYAMSWVRQVPGKGLEWVSSINWSGTHTDYADSVKGRFTISRNNANNTLYLQMNSLKSEDTAVYYCAKNWRDAGTTWFEKSGSAGQGTQVTVSS
notes: biparatopic Nanobody; C-term myc-His6 tag; also called 2B7-35GS-2D3
**Q.** How did the koff [3] turn out when B12 was run?
**A.** ~0.001 s⁻¹

B13: 2D3-35GS-47D5 (bispecific antibody)
chain: EVQLVESGGSLVQPGGSLRLSCAASGFTFDDYAMSWVRQVPGKGLEWVSSINWSGTHTDYADSVKGRFTISRNNANNTLYLQMNSLKSEDTAVYYCAKNWRDAGTTWFEKSGSAGQGTQVTVSSGGGGSGGGGSGGGGSGGGGSGGGGSGGGGSGGGGSEVQLVESGGGLVQPGGSLRLSCAASGSIFGFNDMAWYRQAPGKQRELVALISRVGVTSSADSVKGRFTISRVNAKDTVYLQMNSLKPEDTAVYYCYMDQRLDGSTLAYWGQGTQVTVSS
notes: biparatopic Nanobody; C-term myc-His6 tag; also called 2D3-47D5
**Q.** With B13 as the binder, how does the koff [4] read?
**A.** 8.07e-05 s⁻¹

**Q.** What about the koff [5] of the same binder?
**A.** 5.45e-05 s⁻¹

**Q.** What about the “fold lower koff than on each of the 2D3 and 47D5 surfaces” value [9] of the same binder?
**A.** 25 fold

B14: 47D5 (VHH)
VHH: KVQLVESGGGLVQPGGSLRLSCAASGSIFGFNDMAWYRQAPGKQRELVALISRVGVTSSADSVKGRFTISRVNAKDTVYLQMNSLKPEDTAVYYCYMDQRLDGSTLAYWGQGTQVTVSS
notes: C-term myc-His6 tag; also called 47A8; 47A11
**Q.** How did the koff [10] turn out when B14 was run?
**A.** 0.00256 s⁻¹

**Q.** And the Kd [6]?
**A.** 2.23 nM

**Q.** What about the koff [6] of the same binder?
**A.** 0.000862 s⁻¹

**Q.** What about the kon [6] of the same binder?
**A.** 386000 M⁻¹ s⁻¹

**Q.** What about the koff [11] of the same binder?
**A.** 0.00131 s⁻¹

B15: 27H5-35GS-2D3 (bispecific antibody)
chain: EVQLVESGGGLVQAGGSLRLSCAASGFTFDDYGIGWFRQASGKEREGVSCITSSDGSTYYADSVKGRFTISSDNAKNTVYLQMNSLKPEDTAVYYCAALPFVCPSGSYSDYGDEYDYWGQGTQVTVSSGGGGSGGGGSGGGGSGGGGSGGGGSGGGGSGGGGSEVQLVESGGSLVQPGGSLRLSCAASGFTFDDYAMSWVRQVPGKGLEWVSSINWSGTHTDYADSVKGRFTISRNNANNTLYLQMNSLKSEDTAVYYCAKNWRDAGTTWFEKSGSAGQGTQVTVSS
notes: as for B8
**Q.** Which koff [3] does the source give for B15 here?
**A.** ~0.001 s⁻¹

B16: 27C3-35GS-2D3 (bispecific antibody)
chain: EVQLVESGGGLVQPGGSLRLSCAASGFTFDDYATSWVRQAPGKGPEWVSAINSGGGSTYYADSVKGRFTISRDNAKNTLYLQMNSLKPEDTAVYYCARPRGSSLYLLEYDYWGQGTQVTVSSGGGGSGGGGSGGGGSGGGGSGGGGSGGGGSGGGGSEVQLVESGGSLVQPGGSLRLSCAASGFTFDDYAMSWVRQVPGKGLEWVSSINWSGTHTDYADSVKGRFTISRNNANNTLYLQMNSLKSEDTAVYYCAKNWRDAGTTWFEKSGSAGQGTQVTVSS
notes: as for B8
**Q.** Which koff [3] does the source give for B16 here?
**A.** ~0.001 s⁻¹
